Two molecules from patent US20240287172A1 (SCIRHOM, published 2024) can be followed below.

In the experiment the target is T1, hiR2-FL-I483V-T7 (human, UniProt Q6PJF5 1-856).
T1 sequence: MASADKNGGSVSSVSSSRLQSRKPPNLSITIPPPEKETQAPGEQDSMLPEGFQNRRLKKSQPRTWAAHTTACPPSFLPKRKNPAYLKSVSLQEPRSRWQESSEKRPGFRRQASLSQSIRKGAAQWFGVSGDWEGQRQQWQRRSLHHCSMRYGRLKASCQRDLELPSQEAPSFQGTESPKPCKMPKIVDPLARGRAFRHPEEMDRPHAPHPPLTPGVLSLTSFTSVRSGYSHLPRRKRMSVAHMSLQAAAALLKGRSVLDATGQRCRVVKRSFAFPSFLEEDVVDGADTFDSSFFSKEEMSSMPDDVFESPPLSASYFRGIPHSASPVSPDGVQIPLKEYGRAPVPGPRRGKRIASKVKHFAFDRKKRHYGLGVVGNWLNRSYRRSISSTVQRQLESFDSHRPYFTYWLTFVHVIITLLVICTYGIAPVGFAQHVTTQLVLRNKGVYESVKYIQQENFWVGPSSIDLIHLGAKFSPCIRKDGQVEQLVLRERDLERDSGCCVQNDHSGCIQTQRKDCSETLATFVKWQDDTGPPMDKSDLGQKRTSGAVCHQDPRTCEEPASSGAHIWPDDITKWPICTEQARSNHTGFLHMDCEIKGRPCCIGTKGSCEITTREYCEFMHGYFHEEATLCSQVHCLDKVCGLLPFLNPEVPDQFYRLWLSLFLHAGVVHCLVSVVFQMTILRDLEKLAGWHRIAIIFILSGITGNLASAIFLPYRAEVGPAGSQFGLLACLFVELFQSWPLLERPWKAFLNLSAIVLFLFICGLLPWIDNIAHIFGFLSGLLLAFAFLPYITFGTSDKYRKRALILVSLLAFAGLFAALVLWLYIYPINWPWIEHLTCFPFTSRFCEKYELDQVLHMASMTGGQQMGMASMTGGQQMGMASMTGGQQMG
The experiment in a line: FACS, MEF-DKO cells, 3 µg/ml. The source says: In brief, immortalized MEF-DKO-hiR2-FL-A431S-T7, MEF-DKO-hiR2-FL-V434E-T7, MEF-DKO-hiR2-FL-T436V-T7, MEF-DKO-hiR2-FL-Q437D-T7, MEF-DKO-hiR2-FL-L438S-T7, MEF-DKO-hiR2-FL-S448N-T7, MEF-DKO-hiR2-FL-I452V-T7, MEF-DKO-hiR2-FL-I464E-T7, MEF-DKO-hiR2-FL-D465A-T7, MEF-DKO-hiR2-FL-I477M-T7, MEF-DKO-hiR2-FL-K479Q-T7, MEF-DKO-hiR2-FL-G481P-T7, MEF-DKO-hiR2-FL-I483V-T7, MEF-DKO-hiR2-FL-E484H-T7, MEF-DKO-hiR2-FL-Q485S-T7, MEF-DKO-hiR2-FL-L486F-T7, MEF-DKO-hiR2-FL-V487I-T7, MEF-DKO-hiR2-FL-R489S-T7, MEF-DKO-hiR2-FL-E490A-T7, MEF-DKO-hiR2-FL-D492E-T7, MEF-DKO-hiR2-FL-L493R-T7, MEF-DKO-hiR2-FL-R495K-T7 and MEF-DKO-hiR2-FL-D496H-T7 cells were harvested with 10 mM EDTA in PBS, washed and resuspended in FACS buffer (PBS, 3% FBS, 0.05% sodium azide), and seeded in Nunc U-bottom 96-well plates (Thermo Fisher Scientific, USA) at approximately 1×10⁵ cells per well. To pellet cells and remove supernatants, the plates were centrifuged at 1,500 rpm and 4° C. for 3 minutes. For primary staining, cells were resuspended in 100 μl per well of either FACS buffer alone (controls) or the purified antibodies 3, 5, 16, 22, 34, 42, 43, 44, 48, and 50 of the invention at 3 μg/ml in FACS buffer and incubated on ice for 1 hour. Afterwards, plates were centrifuged at 1,500 rpm and 4° C. for 3 minutes and washed twice with 200 μl per well of FACS buffer. For secondary staining, cells were spun down and resuspended in 100 μl per well of PE-conjugated goat anti-mouse IgG F(ab′)2 detection fragment (Dianova, Germany) diluted 1:100 in FACS buffer. Protected from light, the cell suspensions were incubated on ice for 1 hour. Plates were then centrifuged at 1,500 rpm and 4° C. for 3 minutes and washed three times with 200 μl per well of FACS buffer. Finally, cells were resuspended in 150 μl per well of FACS buffer and analyzed using a BD Accuri™ C6 Plus flow cytometer (Becton Dickinson, Germany).
On the technique in general: In flow cytometry, cells or beads pass a laser one at a time.

Substitutions are numbered along the chain they refer to. Bounds are passed on as bounds.

B1: antibody 48 (antibody, V domains shown)
VH: QVQLQQSGTELVRPGTSVKVSCKASGYAFTNYLIEWVKQRPGQGLEWIGVINPGSGFTKYNEKFKGKATLTADKSSSTVYMHLSSLTSEDSAVYFCARGLYRAMDYWGQGTSVTVSS
VL: DIQMTQSPASQSASLGESVTITCLASQTIATWLAWYQQKPGKSPQLLIYGATTLADGVPSRFSGGGSGTKFSFKISSLQAEDFVSYYCQQLYSTPYTFGGGTKLEIK
notes: mouse IgG, kappa light chain; also called clone #48; purified antibody 48
Turning to B1, the “loss of binding vs wild type” value was at least 30%.

B2: antibody 50 (antibody, V domains shown)
VH: B1 VH with T9A, T16A, T30S, V79A, H82Q
VL: B1 VL with A30G, G50A, T52A, T53S, S85N, L91I
notes: mouse IgG, kappa light chain; also called clone #50; purified antibody 50
On to B2, for which the “loss of binding vs wild type” value is at least 30%.
